Results: doi:10.1101/2021.05.25.445586
Read-outs that look alike come from different tables or passages of the source.

Assays:
[1] = target: mouse WT-RELN (Reelin), full-length (mouse) (UniProt Q60841); experiment: non-reducing SDS-PAGE with immunoblot
[2] = target: mouse WT-RELN (Reelin), full-length (mouse) (UniProt Q60841); experiment: non-reducing SDS-PAGE with immunoblot; remark: listed apart in the source

stoichiometry N [1]: 2
stoichiometry N [2]: 2
Substance: mouse WT-RELN (Reelin), full-length, Q60841 27-3461
